The source of these data is patent publication US20130157953A1, “TREATMENT OF CARDIAC CONDITIONS” (Zealand Pharma A/S, priority 2010, published 2013).

Test [1] concerns the target human glucagon-like peptide 1 receptor (GLP-1R) (human, UniProt P43220 24-463). Nature of the test: cell-based or functional assay.
Test [2] deals with human glucagon receptor (Glucagon-R) (human, UniProt P47871 26-477). Nature of the test: cell-based or functional assay.

Numbered stars: 1 amine (or outer) side, 2 acyl side, 3 side chain; on linkers, the order of the positions; unused ones are H or OH. Bridge positions count the residues as written; N and C are the ends. Square brackets hold non-standard residues; d marks the D form. Side chains are listed from the residue outwards. * marks the point of attachment. γGlu = O=C(O)[C@H](CCC(=O)[*:2])N[*:1]; Palmitoyl = CCCCCCCCCCCCCCCC(=O)*; Aib = CC(C)(N)C(=O)O

Chain of human glucagon receptor (Glucagon-R) (P47871 26-477): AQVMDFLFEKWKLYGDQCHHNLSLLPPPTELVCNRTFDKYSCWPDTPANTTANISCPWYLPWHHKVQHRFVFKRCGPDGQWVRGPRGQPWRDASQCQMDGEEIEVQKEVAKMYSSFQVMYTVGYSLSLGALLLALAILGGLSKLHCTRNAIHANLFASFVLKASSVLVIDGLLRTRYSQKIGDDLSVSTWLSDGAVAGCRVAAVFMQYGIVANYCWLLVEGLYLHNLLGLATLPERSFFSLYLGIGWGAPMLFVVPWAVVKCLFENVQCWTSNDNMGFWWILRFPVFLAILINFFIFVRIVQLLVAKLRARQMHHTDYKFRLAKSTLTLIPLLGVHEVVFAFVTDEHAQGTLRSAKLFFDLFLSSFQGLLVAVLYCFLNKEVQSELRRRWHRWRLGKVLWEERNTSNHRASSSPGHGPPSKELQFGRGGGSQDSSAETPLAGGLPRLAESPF

B1: Compound 244 (peptide)
peptide: H-HSQGTFTSDYSKYLDSRHAQDFVWLMNT-NH2
With B1, the “EC50 (nM) GLP-1R; cAMP content, HEK293 cells expressing human GLP-1R” value (“EC50 (nM) GLP-1R; cAMP content” below) in test [1] came out at 0.5 nM. The “EC50 (nM) GuR; cAMP content, HEK293 cells expressing the human glucagon receptor” value (“EC50 (nM) GuR; cAMP content” below) in test [2] stood at 0.05 nM.

B2: Compound 246 (peptide)
peptide: H-HSQGTFTSDYSKYLDSRAAQDFVWLMNT-NH2
Take B2: the “EC50 (nM) GLP-1R; cAMP content” value in test [1] was found to be 0.3 nM. Further, the “EC50 (nM) GuR; cAMP content” value in test [2] was 0.05 nM.

B3: Compound 254 (peptide)
peptide: H-HSQGTFTSDYSRYLDSRRAQDFVWLLNK-NH2
Turning to B3, the “EC50 (nM) GLP-1R; cAMP content” value in test [1] turned out to be 0.2 nM. Moreover, in test [2], the “EC50 (nM) GuR; cAMP content” value is 0.2 nM.

B4: Compound 247 (peptide)
peptide: H-HSQGTFTSDYSKYLDSRYAQDFVWLMNT-NH2
Regarding B4, the “EC50 (nM) GLP-1R; cAMP content” value in test [1] is 0.3 nM.

B5: Compound 245 (peptide)
peptide: H-HSQGTFTSDYSKYLDSRSAQDFVWLMNT-NH2
On to B5, for which the “EC50 (nM) GuR; cAMP content” value in test [2] was 0.05 nM.

B6: Compound 250 (peptide)
peptide: H-HSQGTFTSDYSKYLDSRRAQDFVWLKRA-NH2
Consider B6, for which, in test [1], the “EC50 (nM) GLP-1R; cAMP content” value came to 0.3 nM.

B7: Compound 255 (peptide)
peptide: H-HSQGTFTSDYSKYLDSALAQDFVWLLNT-NH2
B7: in test [1], the “EC50 (nM) GLP-1R; cAMP content” value is 0.24 nM.

B8: Compound 215 (peptide)
peptide: H-H[Aib]QGTFTSDYSKYLDSK([3‑aminopropanoyl-Palmitoyl])AAHDFVEWLLSA-NH2
Regarding B8, in test [2], the “EC50 (nM) GuR; cAMP content” value was found to be 1.87 nM.

B9: Compound 205 (peptide)
peptide: H-HSQGTFTSDYSKYLDSKAAHDFVEWLLK([γGlu-Palmitoyl])A-NH2
SMILES: CCCCCCCCCCCCCCCC(=O)N[C@@H](CCC(=O)NCCCC[C@H](NC(=O)[C@H](CC(C)C)NC(=O)[C@H](CC(C)C)NC(=O)[C@H](Cc1c[nH]c2ccccc12)NC(=O)[C@H](CCC(=O)O)NC(=O)[C@@H](NC(=O)[C@H](Cc1ccccc1)NC(=O)[C@H](CC(=O)O)NC(=O)[C@H](Cc1c[nH]cn1)NC(=O)[C@H](C)NC(=O)[C@H](C)NC(=O)[C@H](CCCCN)NC(=O)[C@H](CO)NC(=O)[C@H](CC(=O)O)NC(=O)[C@H](CC(C)C)NC(=O)[C@H](Cc1ccc(O)cc1)NC(=O)[C@H](CCCCN)NC(=O)[C@H](CO)NC(=O)[C@H](Cc1ccc(O)cc1)NC(=O)[C@H](CC(=O)O)NC(=O)[C@H](CO)NC(=O)[C@@H](NC(=O)[C@H](Cc1ccccc1)NC(=O)[C@@H](NC(=O)CNC(=O)[C@H](CCC(N)=O)NC(=O)[C@H](CO)NC(=O)[C@@H](N)Cc1c[nH]cn1)[C@@H](C)O)[C@@H](C)O)C(C)C)C(=O)N[C@@H](C)C(N)=O)C(=O)O
In the case of B9, the “EC50 (nM) GLP-1R; cAMP content” value in test [1] is 0.09 nM.

B10: Compound 251 (peptide)
peptide: H-HSQGTFTSDYSKYLDSRRAQDFVWLERA-NH2
Turning to B10, the “EC50 (nM) GLP-1R; cAMP content” value in test [1] stood at 0.2 nM.

B11: Compound 204 (peptide)
peptide: H-HSQGTFTSDYSKYLDSKAAK([γGlu-Palmitoyl])DFVEWLLRA-NH2
SMILES: CCCCCCCCCCCCCCCC(=O)N[C@@H](CCC(=O)NCCCC[C@H](NC(=O)[C@H](C)NC(=O)[C@H](C)NC(=O)[C@H](CCCCN)NC(=O)[C@H](CO)NC(=O)[C@H](CC(=O)O)NC(=O)[C@H](CC(C)C)NC(=O)[C@H](Cc1ccc(O)cc1)NC(=O)[C@H](CCCCN)NC(=O)[C@H](CO)NC(=O)[C@H](Cc1ccc(O)cc1)NC(=O)[C@H](CC(=O)O)NC(=O)[C@H](CO)NC(=O)[C@@H](NC(=O)[C@H](Cc1ccccc1)NC(=O)[C@@H](NC(=O)CNC(=O)[C@H](CCC(N)=O)NC(=O)[C@H](CO)NC(=O)[C@@H](N)Cc1c[nH]cn1)[C@@H](C)O)[C@@H](C)O)C(=O)N[C@@H](CC(=O)O)C(=O)N[C@@H](Cc1ccccc1)C(=O)N[C@H](C(=O)N[C@@H](CCC(=O)O)C(=O)N[C@@H](Cc1c[nH]c2ccccc12)C(=O)N[C@@H](CC(C)C)C(=O)N[C@@H](CC(C)C)C(=O)N[C@@H](CCCNC(=N)N)C(=O)N[C@@H](C)C(N)=O)C(C)C)C(=O)O
In the case of B11, the “EC50 (nM) GuR; cAMP content” value in test [2] was 0.04 nM.

B12: Compound 252 (peptide)
peptide: H-HSQGTFTSDYSRYLDSRRAKDFVWLLNT-NH2
Consider B12, for which the “EC50 (nM) GLP-1R; cAMP content” value in test [1] was 0.5 nM. The “EC50 (nM) GuR; cAMP content” value in test [2] is 0.3 nM.

B13: Compound 260 (peptide)
peptide: H-HSQGTFTSDYSKYLDSKAAQDFVWLMNT-NH2
In the case of B13, the “EC50 (nM) GLP-1R; cAMP content” value in test [1] was 0.02 nM. The “EC50 (nM) GuR; cAMP content” value in test [2] is 0.07 nM.

B14: Compound 259 (peptide)
peptide: H-HSQGTFTSDYSKYLDERRAQDFVWLMNT-NH2
modifications: lactam 12-16
SMILES: CSCC[C@H](NC(=O)[C@H](CC(C)C)NC(=O)[C@H](Cc1c[nH]c2ccccc12)NC(=O)[C@@H](NC(=O)[C@H](Cc1ccccc1)NC(=O)[C@H](CC(=O)O)NC(=O)[C@H](CCC(N)=O)NC(=O)[C@H](C)NC(=O)[C@H](CCCNC(=N)N)NC(=O)[C@H](CCCNC(=N)N)NC(=O)[C@@H]1CCC(=O)NCCCC[C@H](NC(=O)[C@H](CO)NC(=O)[C@H](Cc2ccc(O)cc2)NC(=O)[C@H](CC(=O)O)NC(=O)[C@H](CO)NC(=O)[C@@H](NC(=O)[C@H](Cc2ccccc2)NC(=O)[C@@H](NC(=O)CNC(=O)[C@H](CCC(N)=O)NC(=O)[C@H](CO)NC(=O)[C@@H](N)Cc2c[nH]cn2)[C@@H](C)O)[C@@H](C)O)C(=O)N[C@@H](Cc2ccc(O)cc2)C(=O)N[C@@H](CC(C)C)C(=O)N[C@@H](CC(=O)O)C(=O)N1)C(C)C)C(=O)N[C@@H](CC(N)=O)C(=O)N[C@H](C(N)=O)[C@@H](C)O
With B14, the “EC50 (nM) GLP-1R; cAMP content” value in test [1] was found to be 0.04 nM. Moreover, the “EC50 (nM) GuR; cAMP content” value in test [2] came out at 0.03 nM.

B15: Compound 253 (peptide)
peptide: H-HSQGTFTSDYSRYLDSRRAQDFVWLLNT-NH2
Take B15: in test [1], the “EC50 (nM) GLP-1R; cAMP content” value stood at 0.2 nM.

B16: Compound 48 (peptide)
peptide: H-HSQGTFTSDYSKYLDSKAAHDFVEWLLRA-NH2
With B16, the “EC50 (nM) GLP-1R; cAMP content” value in test [1] worked out at 0.06 nM. Further, the “EC50 (nM) GuR; cAMP content” value in test [2] was 0.06 nM.

B17: Compound 256 (peptide)
peptide: H-HSQGTFTSDYSKYLDKRRAEDFVWLMNT-NH2
For B17, the “EC50 (nM) GLP-1R; cAMP content” value in test [1] amounted to 0.2 nM. Also, the “EC50 (nM) GuR; cAMP content” value in test [2] was found to be 0.07 nM.

B18: Compound 263 (peptide)
peptide: H-H[Aib]QGTFTSDYSKYLDEK([γGlu-Palmitoyl])RAKDFIEWLLSA-NH2
SMILES: CCCCCCCCCCCCCCCC(=O)N[C@@H](CCC(=O)NCCCC[C@H](NC(=O)[C@H](CCC(=O)O)NC(=O)[C@H](CC(=O)O)NC(=O)[C@H](CC(C)C)NC(=O)[C@H](Cc1ccc(O)cc1)NC(=O)[C@H](CCCCN)NC(=O)[C@H](CO)NC(=O)[C@H](Cc1ccc(O)cc1)NC(=O)[C@H](CC(=O)O)NC(=O)[C@H](CO)NC(=O)[C@@H](NC(=O)[C@H](Cc1ccccc1)NC(=O)[C@@H](NC(=O)CNC(=O)[C@H](CCC(N)=O)NC(=O)C(C)(C)NC(=O)[C@@H](N)Cc1c[nH]cn1)[C@@H](C)O)[C@@H](C)O)C(=O)N[C@@H](CCCNC(=N)N)C(=O)N[C@@H](C)C(=O)N[C@@H](CCCCN)C(=O)N[C@@H](CC(=O)O)C(=O)N[C@@H](Cc1ccccc1)C(=O)N[C@H](C(=O)N[C@@H](CCC(=O)O)C(=O)N[C@@H](Cc1c[nH]c2ccccc12)C(=O)N[C@@H](CC(C)C)C(=O)N[C@@H](CC(C)C)C(=O)N[C@@H](CO)C(=O)N[C@@H](C)C(N)=O)[C@@H](C)CC)C(=O)O
B18: the “EC50 (nM) GuR; cAMP content” value in test [2] amounted to 0.16 nM.

B19: Compound 12 (peptide)
peptide: H-HSQGTFTSDYSKYLDRARADDFVAWLKST-NH2
On to B19, for which, in test [1], the “EC50 (nM) GLP-1R; cAMP content” value worked out at 0.23 nM. The “EC50 (nM) GuR; cAMP content” value in test [2] was 0.5 nM.

B20: Compound 248 (peptide)
peptide: H-HSQGTFTSDYSKYLDSRRAQDFVWLESA-NH2
In the case of B20, the “EC50 (nM) GLP-1R; cAMP content” value in test [1] was determined as 0.5 nM.

B21: Compound 258 (peptide)
peptide: H-HSQGTFTSDYSRYLDERRAQDFVWLMNT-NH2
For the molecule B21, the “EC50 (nM) GLP-1R; cAMP content” value in test [1] amounted to 0.07 nM. In test [2], the “EC50 (nM) GuR; cAMP content” value stood at 0.06 nM.

B22: Compound 243 (peptide)
peptide: H-HSQGTFTSDYSKYLDSERAQDFVWLMNT-NH2
For B22, the “EC50 (nM) GuR; cAMP content” value in test [2] was found to be 0.06 nM.

B23: Compound 257 (peptide)
peptide: H-HSQGTFTSDYSKYLDKRRAEDFVWLMNT-NH2
modifications: lactam 16-20
SMILES: CSCC[C@H](NC(=O)[C@H](CC(C)C)NC(=O)[C@H](Cc1c[nH]c2ccccc12)NC(=O)[C@@H](NC(=O)[C@H](Cc1ccccc1)NC(=O)[C@H](CC(=O)O)NC(=O)[C@@H]1CCC(=O)NCCCC[C@H](NC(=O)[C@H](CC(=O)O)NC(=O)[C@H](CC(C)C)NC(=O)[C@H](Cc2ccc(O)cc2)NC(=O)[C@H](CCCCN)NC(=O)[C@H](CO)NC(=O)[C@H](Cc2ccc(O)cc2)NC(=O)[C@H](CC(=O)O)NC(=O)[C@H](CO)NC(=O)[C@@H](NC(=O)[C@H](Cc2ccccc2)NC(=O)[C@@H](NC(=O)CNC(=O)[C@H](CCC(N)=O)NC(=O)[C@H](CO)NC(=O)[C@@H](N)Cc2c[nH]cn2)[C@@H](C)O)[C@@H](C)O)C(=O)N[C@@H](CCCNC(=N)N)C(=O)N[C@@H](CCCNC(=N)N)C(=O)N[C@@H](C)C(=O)N1)C(C)C)C(=O)N[C@@H](CC(N)=O)C(=O)N[C@H](C(N)=O)[C@@H](C)O
For B23, the “EC50 (nM) GuR; cAMP content” value in test [2] is 0.09 nM.
